Experiments:
Assay in all cases: cell-based or functional assay
[1] = biological target: CadC-artTM-GCN4 (E. coli) (UniProt P23890)
CadC-wtTM-GCN4 (E. coli) = CadC-wtTM-GCN4 (E. coli) (UniProt P23890)
DsRed = DsRed (UniProt Q9U6Y8)
DsRed, sequence (Q9U6Y8 whole entry): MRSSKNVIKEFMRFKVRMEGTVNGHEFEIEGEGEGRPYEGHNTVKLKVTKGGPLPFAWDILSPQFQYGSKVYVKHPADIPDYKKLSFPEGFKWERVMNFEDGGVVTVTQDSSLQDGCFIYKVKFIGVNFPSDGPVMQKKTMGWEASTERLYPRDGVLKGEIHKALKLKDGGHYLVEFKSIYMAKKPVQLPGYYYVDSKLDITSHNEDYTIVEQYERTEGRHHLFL

## CadC-artTM-GCN4 (from UniProt P23890 1-154; P03069 253-274)
[1]
  fold change in GFP expression compared to the construct without GCN4 (pCadBA-GFP reporter, E. coli, flow cytometry): 300 fold

## CadC-wtTM-GCN4 (from UniProt P23890 1-187; P03069 253-274)
CadC-wtTM-GCN4 (E. coli)
  fold change in GFP expression compared to the construct without GCN4 (pCadBA-GFP reporter, E. coli, flow cytometry): 50 fold

## LexA-DBD-Lam4 (from UniProt P0A7C2 1-87)
DsRed
  deGFP signal strength with DsRed in the medium (cell-free system, pLexA-deGFP reporter 300 ng/reaction, LexA-Lam4 plasmid 800 ng/reaction): 4850 a.u.
  deGFP signal strength without DsRed in the medium (baseline; cell-free system, pLexA-deGFP reporter 300 ng/reaction, LexA-Lam4 plasmid 800 ng/reaction): 41400 a.u.
  ratio of deGFP signal strength without and with DsRed (cell-free system, pLexA-deGFP reporter 300 ng/reaction, LexA-Lam4 plasmid 800 ng/reaction): 8.5
